Eight molecules from patent publication US20240076386A1 (Pfizer, published 2024) can be followed below.

For test [1], the target named is T1, cynomolgus monkey E-selectin extracellular domain with 10 His purification tail (cynomolgus monkey, UniProt P16581 22-554 (human entry)).
T1 construct: also called cynomolgus E-selectin; truncated cynomolgus monkey E-selectin
T1 chain: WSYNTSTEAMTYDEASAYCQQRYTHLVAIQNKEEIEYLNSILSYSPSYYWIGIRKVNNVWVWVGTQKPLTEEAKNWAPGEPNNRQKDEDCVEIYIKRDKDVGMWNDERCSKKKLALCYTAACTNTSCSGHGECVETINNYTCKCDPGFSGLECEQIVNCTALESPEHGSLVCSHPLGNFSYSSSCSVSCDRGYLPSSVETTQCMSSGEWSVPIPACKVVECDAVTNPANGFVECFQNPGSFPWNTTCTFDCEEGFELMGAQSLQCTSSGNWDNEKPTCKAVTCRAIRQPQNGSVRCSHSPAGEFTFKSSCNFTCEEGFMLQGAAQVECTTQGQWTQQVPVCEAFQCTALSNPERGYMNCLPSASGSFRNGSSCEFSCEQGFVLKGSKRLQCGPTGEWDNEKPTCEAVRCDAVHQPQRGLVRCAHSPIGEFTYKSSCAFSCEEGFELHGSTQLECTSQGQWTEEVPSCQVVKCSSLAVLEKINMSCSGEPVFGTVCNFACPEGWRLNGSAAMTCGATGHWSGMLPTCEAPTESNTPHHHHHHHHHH
The experiment in a line: SPR, antibody captured, E-selectin analyte. How it is done: To characterize binding of antibodies to human, cynomolgus monkey, and mouse E-selectin, an antibody was diluted to 0.5 μg/mL in HBS-EP+ and captured by the anti-human IgG immobilized on flow cells 2, 3 and 4 for 30 seconds to 1 minute at a flow rate of 10 μL/minute to achieve a capture level of 70 to 300 RU. Flow cell 1 was used as a reference surface. […] HBS-EP+ buffer cycles collected for each captured antibody were used for double-referencing (Myszka D G. J. Mol. Recognition 1999; 12(5):279-84). At the end of each cycle, the entire anti-IgG surface was regenerated by a 30 second pulse of 3 M MgCl₂ and a 30 second pulse of ionic buffer (1.83 M MgCl₂, 0.92 M Urea, 1.83 M Guanidine HCl, pH 7.4) (Andersson K. Analy. Chem. 1999; 71(13): 2475-81). Kinetic assays were conducted at 25° C. at a collection rate of 10 Hertz (Hz) on a BIAcore™ T200 instrument (GE Healthcare). Rate constants and affinities were determined by fitting the data to a 1:1 binding model in BIAcore™ T200 Evaluation software version 3.0 (GE Healthcare).
(In general: SPR reads the build-up and loss of mass on a sensor chip optically.)

Test [2] has as its target T2, recombinant histidine-tagged human E-selectin (Sino Biologicals; 13025-H08H) (human, UniProt P16581 22-556).
T2 construct: also called recombinant human E-selectin; soluble recombinant human E-selectin
T2 sequence (looked up): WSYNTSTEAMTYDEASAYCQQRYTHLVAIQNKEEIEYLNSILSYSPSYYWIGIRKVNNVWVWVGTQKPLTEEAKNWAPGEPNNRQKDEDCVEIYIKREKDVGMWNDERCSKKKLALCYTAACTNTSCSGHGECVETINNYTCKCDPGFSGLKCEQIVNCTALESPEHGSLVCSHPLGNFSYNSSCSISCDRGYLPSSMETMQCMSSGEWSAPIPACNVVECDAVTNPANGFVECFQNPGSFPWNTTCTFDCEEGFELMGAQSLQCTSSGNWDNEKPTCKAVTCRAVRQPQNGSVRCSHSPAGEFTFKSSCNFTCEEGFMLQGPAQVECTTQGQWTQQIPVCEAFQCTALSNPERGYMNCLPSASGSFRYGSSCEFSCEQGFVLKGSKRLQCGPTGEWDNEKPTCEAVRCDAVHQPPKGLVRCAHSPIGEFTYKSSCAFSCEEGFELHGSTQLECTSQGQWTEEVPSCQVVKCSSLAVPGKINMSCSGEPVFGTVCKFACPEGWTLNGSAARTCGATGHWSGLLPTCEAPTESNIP
Put plainly: direct binding ELISA, His-tagged selectin on plate. How it is done:
(§1) Recombinant histidine tagged human P-, E- or L-selectin (Sino Biologicals), mouse E-selectin (Sino Biologicals), rat E-selectin (Sino Biologicals) and Cynomolgus monkey E-selectin (Sino Biologicals) stock solutions were prepared to a final concentration of 1 μg/mL in phosphate buffered saline without calcium and magnesium. Controls included an L-selectin directed antibody (BioLegend; 304811) or P-selectin directed antibody or a negative control IgG. One hundred μL per well of the diluted recombinant selectin proteins were added into a Ni-NTA HisSorb 96 well plate (Qiagen; 35061). Plates were incubated on an orbital shaker at room temperature for 2 hours. Following the incubation, the plates were washed 3 times with 200 μL of wash buffer (50 mM TRIS [trisaminomethane]; 150 mM sodium chloride; 0.05% polysorbate 20, pH 7.4). To decrease nonspecific binding, plates were treated with 200 μL of blocking buffer (BD Opteia buffer; 555213; BD Biosciences), incubated on an orbital shaker for 1 hour at room temperature and washed as described above. […] One hundred μL specific detection antibodies (described below) were added and incubated for 1 hour: [0556] […] Anti L-selectin and anti-rat-E-selectin antibodies were detected using 1 to 25000 dilution of Peroxidase-conjugated AffiniPure Goat Anti-Mouse IgG (H+L); (Jackson ImnnunoResearch Lab).
(§2) Plates were washed and 100 μL per well of 1-Step Ultra TMB substrate (Thermo Scientific) was added and incubated for 5 minutes at room temperature. Reactions were stopped with 100 μL of 2 M sulfuric acid and absorbance read at 450 nm (Spectramax M5e).

The target of test [3] is T3, recombinant histidine-tagged cynomolgus monkey E-selectin (Sino Biologicals; 190169-C08H) (cynomolgus monkey, UniProt A0A2K5U7H9 22-554).
T3 construct: also called recombinant cynomolgus monkey E-selectin
T3 sequence: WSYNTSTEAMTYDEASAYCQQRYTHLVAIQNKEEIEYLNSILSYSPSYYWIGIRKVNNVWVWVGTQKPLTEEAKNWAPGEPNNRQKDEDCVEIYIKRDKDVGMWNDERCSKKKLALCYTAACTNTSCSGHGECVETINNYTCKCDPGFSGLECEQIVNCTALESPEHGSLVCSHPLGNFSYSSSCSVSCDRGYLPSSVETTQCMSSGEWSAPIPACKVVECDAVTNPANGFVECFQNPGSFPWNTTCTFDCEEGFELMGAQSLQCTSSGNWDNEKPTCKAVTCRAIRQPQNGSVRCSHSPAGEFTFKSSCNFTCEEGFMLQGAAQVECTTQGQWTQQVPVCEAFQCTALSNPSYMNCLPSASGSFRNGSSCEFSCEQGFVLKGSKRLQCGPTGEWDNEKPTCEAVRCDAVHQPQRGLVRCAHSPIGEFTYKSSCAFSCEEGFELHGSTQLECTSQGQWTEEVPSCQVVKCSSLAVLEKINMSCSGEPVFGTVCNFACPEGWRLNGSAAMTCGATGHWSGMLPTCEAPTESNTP
The experiment in a line: direct binding ELISA, His-tagged selectin on plate. How it is done: as §1, §2
(An ELISA detects its analyte on a solid surface through an enzyme-linked reagent.)

B1: anti-E-selectin antibody 0159 chimera (antibody, human IgG1, kappa, V domains shown)
VH: EVQLQQSGAELGKPGTSVKLSCKVSGYNIRSTYMHWVSQRPGKGLEWIGRIDPANGNTIYAEKFKRKATLTADTSSNTAYMQLSQLKSDDRAIYFCAMEVRVSFEYWGQGVMVTVSS
VL: DIQMTQSPSFLSASVGDRVTINCKASQNINKYLDWYQQKLGEGPKLLIYYTNNLHTGIPSRFSGSGSGTDFTLTISSLQPEDVATYFCLQHDSGYTFGAGTKLELKR
notes: rat VH/VL on effector-null human IgG1 and human kappa
With B1, in test [1], the Kd (commonly the constant that tells how readily two partners part at equilibrium) was determined as 244 nM; the koff (commonly the first-order rate constant of dissociation) was 0.0374 s⁻¹; the kon – broadly, the rate constant with which the complex forms – is 154000 M⁻¹ s⁻¹; the t½ (as a rule, how long it takes for the measured level to halve) amounted to 18.5 s.

B2: anti-E-selectin antibody 0170 chimera (antibody, human IgG1, kappa, V domains shown)
VH: EVQLQQSGAELGKPGTSVKLSCKVSGYSIRSTYMHWVNQRPGKGLEWVGRIDPANGNTIYAERFKNKATLTADTSSNTAYMQLSQLKSDDTAIYFCAVEILGIFDYWGQGVMVTVSS
VL: DIQMTQSPSFLSASVGDRVTINCKASQNIDKYLDWYQQKLGEAPKLLMYNTNSLHTGIPSRFSGSGSGTDFTLTISSLQPEDVATYFCLQHNSGYTFGAGTKLELKR
notes: as for B1
In the case of B2, in test [1], the Kd stood at 492 nM, the koff is 0.0564 s⁻¹, the kon amounted to 115000 M⁻¹ s⁻¹ and the t½ was determined as 12.3 s.

B3: anti-E-selectin antibody 0039 chimera (antibody, human IgG1, kappa, V domains shown)
VH: QVQLKETGPGLVQPTQTLSITCTVSGFSLTGYYMQWVRQTPGKGLEWMGFIRSSGSTEYNSEFKSRLSISRDTSKNQVFLKMNSLKTEDTGVYYCARCPYKYSSFVYVGVMDAWGQGAPVTVSS
VL: EIVMTQSPTSMSTSIGERVTLNCKASQTVGINVDWYQQTPGQPPKLLIYGASNRHTGVPDRFTGSGFGRDFTLTISNVEAEDLAVYCCLQYGSIPHTFGPGTKLELKR
notes: as for B1
Turning to B3, in test [1], the Kd was 45.8 nM, the koff is 0.00377 s⁻¹, the kon amounted to 82400 M⁻¹ s⁻¹ and the t½ is 184 s.

B4: humanized anti-E-selectin antibody 0841 (antibody, human IgG1, kappa, V domains shown)
VH: EVQLVESGGGLVQPGGSLRLSCAASGYNIRSSYMHWVRQAPGKGLEWVARIDPANGNTIYAEKFKIRFTISADNAKNSAYLQMNSLRAEDTAVYYCAMDLYSTSEYWGQGTLVTVSS
VL: DIQMTQSPSSLSASVGDRVTITCKTSQNINRYLNWYQQKPGKAPKLLIYNANSLQTGVPSRFSGSGSGTDFTLTISSLQPEDFATYFCLQDNSWPLTFGQGTKVEIKR
notes: effector-null human IgG1, kappa
As for B4, the EC50 (as a rule, the concentration at which the effect is half-maximal) in test [2] was 0.17 nM; in test [3] it was 0.081 nM.

B5: optimized anti-E-selectin antibody 1284 (antibody, human IgG1, kappa, V domains shown)
VH: EVQLVESGGGLVQPGGSLRLSCAASGYAIRSAYMHWVRQAPGKGLEWVARIDPANGNTIYVESVEGRFTISADNAKNSAYLQMNSLRAEDTAVYYCAMDLYSTSEYWGQGTLVTVSS
VL: DIQMTQSPSSLSASVGDRVTITCKTSQNIERYLNWYQQKPGKAPKLLIYAASSLQSGVPSRFSGSGSGTDFTLTISSLQPEDFATYFCLQDNAWPLTFGQGTKVEIKR
notes: as for B4
With B5, the EC50 in test [2] is 0.1 nM; in test [3], 0.082 nM.

B6: optimized anti-E-selectin antibody 1444 (antibody, human IgG1, kappa, V domains shown)
VH: EVQLVESGGGLVQPGGSLRLSCAASGYAIRSAYMHWVRQAPGKGLEWVARIDPANGNTIYVDSVTGRFTISADNAKNSAYLQMNSLRAEDTAVYYCAMDLYSTSEYWGQGTLVTVSS
VL: DIQMTQSPSSLSASVGDRVTITCKTSQNIERYLNWYQQKPGKAPKLLIYAASSLQSGVPSRFSGSGSGTDFTLTISSLQPEDFATYFCLQDNAWPLTFGQGTKVEIKR
notes: as for B4
For B6, the EC50 in test [2] came to 0.12 nM; in test [3], 0.093 nM.

B7: anti-E-selectin antibody 0180 chimera (antibody, human IgG1, kappa, V domains shown)
VH: EVQLQQSGAELGKPGTSVKLSCKVSGYKIRSSYMHWVNQRPGKGLEWIGRIDPANGNTIYGDKFKSKATLTSDTSSNTAYIQLSQLKSDDTAIYFCAIDIGTTFDYWGQGVMVTVSS
VL: DIQMTQSPSFLSASVGDRVTINCKASQHINRYLNWYQQKLGEAPKLLIYDANNLQTGIPSRFSGSGSGTDFTLTISSLQPEDVATYFCLQHNSWPNTFGAGTKLELKR
notes: as for B1
For the molecule B7, in test [1], binding was characterised by a dissociation constant (Kd) of 3140 nM, the koff was found to be 0.749 s⁻¹, the kon turned out to be 245000 M⁻¹ s⁻¹ and the t½ is 0.93 s.

B8: anti-E-selectin antibody 0164 chimera (antibody, human IgG1, kappa, V domains shown)
VH: EVQLQQSGAEFGKPGTSVKLSCKVSGYNIRSSYMHWVNQRPGKGLEWIGRIDPANGNTIYAEKFKIKAILTADSSSNTAYMQLSQLKSDDTAIYFCAMDLYSTSEYWGQGVMVTVSS
VL: DIQMTQSPSFLSASVGDRVTINCKTSQNINRYLNWYQQKLGEAPKLLIYNANSLQTGIPSRFSASGSGTDFTLTINSLQPEDVATYFCLQDNSWPLTFGSGTKLEIKR
notes: as for B1
On to B8, for which, in test [1], the Kd turned out to be 45.4 nM, the koff is 0.012 s⁻¹, the kon came to 265000 M⁻¹ s⁻¹ and the t½ was determined as 57.8 s.
